Source: patent publication US20200231956

Target: dipeptides with a proline at the second position

B1: aminopeptidase T from Thermus aquaticus, with a Cys added at the N-terminus and a 6xHis at the C-terminus (protein)
chain: MCDAFTENLNKLAELAIRVGLNLEEGQEIVATAPIEAVDFVRLLAEKAYENGASLFTVLYGDNLIARKRLALVPEAHLDRAPAWLYEGMAKAFHEGAARLAVSGNDPKALEGLPPERVGRAQQAQSRAYRPTLSAITEFVTNWTIVPFAHPGWAKAVFPGLPEEEAVQRLWQAIFQATRVDQEDPVAAWEAHNRVLHAKVAFLNEKRFHALHFQGPGTDLTVGLAEGHLWQGGATPTKKGRLCNPNLPTEEVFTAPHRERVEGVVRASRPLALSGQLVEGLWARFEGGVAVEVGAEKGEEVLKKLLDTDEGARRLGEVALVPADNPIAKTGLVFFDTLFDENAASHIAFGQAYAENLEGRPSGEEFRRRGGNESMVHVDWMIGSEEVDVDGLLEDGTRVPLMRRGRWVIHHHHHH
aminopeptidase assay, cleavage of the N-terminal amino acid: TaqAPT cleaves dipeptides even with a proline at the second position
